Article PMC5156543 (Molecular Biology of the Cell, 2016)

Target: T1, Vps35-3xHA (S. cerevisiae, UniProt P34110 1-944)
T1 sequence: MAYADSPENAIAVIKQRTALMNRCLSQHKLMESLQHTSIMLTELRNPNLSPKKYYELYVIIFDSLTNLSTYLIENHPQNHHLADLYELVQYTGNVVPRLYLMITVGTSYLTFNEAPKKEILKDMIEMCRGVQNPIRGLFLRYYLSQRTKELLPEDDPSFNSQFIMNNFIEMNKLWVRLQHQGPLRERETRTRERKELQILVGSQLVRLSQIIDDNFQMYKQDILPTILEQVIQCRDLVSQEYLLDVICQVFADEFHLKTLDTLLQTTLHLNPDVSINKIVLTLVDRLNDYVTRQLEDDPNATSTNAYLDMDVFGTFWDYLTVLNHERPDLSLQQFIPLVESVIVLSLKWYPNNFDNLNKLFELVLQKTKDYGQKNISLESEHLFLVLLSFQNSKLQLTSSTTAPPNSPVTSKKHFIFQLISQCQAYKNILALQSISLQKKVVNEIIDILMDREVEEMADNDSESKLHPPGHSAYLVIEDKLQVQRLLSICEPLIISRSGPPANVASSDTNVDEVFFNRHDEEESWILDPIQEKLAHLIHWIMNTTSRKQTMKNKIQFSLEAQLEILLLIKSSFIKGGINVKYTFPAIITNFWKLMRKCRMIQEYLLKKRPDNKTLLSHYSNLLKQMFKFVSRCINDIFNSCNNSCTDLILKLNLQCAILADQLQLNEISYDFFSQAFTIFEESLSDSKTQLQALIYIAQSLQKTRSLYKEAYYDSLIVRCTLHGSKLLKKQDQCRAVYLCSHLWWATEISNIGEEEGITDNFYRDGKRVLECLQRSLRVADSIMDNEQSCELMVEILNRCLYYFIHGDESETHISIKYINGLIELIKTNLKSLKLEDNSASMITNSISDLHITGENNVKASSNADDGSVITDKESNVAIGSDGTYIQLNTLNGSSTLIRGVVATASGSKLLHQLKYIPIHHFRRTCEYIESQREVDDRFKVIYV
Test: co-IP

B1: Δ63-125Chs3-GFP (natural protein)
chain: MTGLNGDDPDDYYLNLNQDEESLLRSRHSVGSGAPHRQGSLVRPERSRLNNPDNPHFYYAQKDEGVAEDEFDKDGDVDNFEESSTQPINKSIKPLRKETNDTLSFWQMYCYFITFWAPAPILAFCGMPKKERQMAWREKVALISVILYIGAIVAFLTFGFTKTVCSSSKLRLKNNEVSTEFVVINGKAYELDTSSRSGIQDVEVDSDTLYGPWSDAGKDASFLFQNVNGNCHNLITPKSNSSIPHDDDNNLAWYFPCKLKNQDGSSKPNFTVENYAGWNCHTSKEDRDAFYGLKSKADVYFTWDGIKNSSRNLIVYNGDVLDLDLLDWLEKDDVDYPVVFDDLKTSNLQGYDLSLVLSNGHERKIARCLSEIIKVGEVDSKTVGCIASDVVLYVSLVFILSVVIIKFIIACYFRWTVARKQGAYIVDNKTMDKHTNDIEDWSNNIQTKAPLKEVDPHLRPKKYSKKSLGHKRASTFDLLKKHSSKMFQFNESVIDLDTSMSSSLQSSGSYRGMTTMTTQNAWKLSNENKAVHSRNPSTLLPTSSMFWNKATSSPVPGSSLIQSLDSTIIHPDIVQQPPLDFMPYGFPLIHTICFVTCYSEDEEGLRTTLDSLSTTDYPNSHKLLMVVCDGLIKGSGNDKTTPEIALGMMDDFVTPPDEVKPYSYVAVASGSKRHNMAKIYAGFYKYDDSTIPPENQQRVPIITIVKCGTPAEQGAAKPGNRGKRDSQIILMSFLEKITFDERMTQLEFQLLKNIWQITGLMADFYETVLMVDADTKVFPDALTHMVAEMVKDPLIMGLCGETKIANKAQSWVTAIQVFEYYISHHQAKAFESVFGSVTCLPGCFSMYRIKSPKGSDGYWVPVLANPDIVERYSDNVTNTLHKKNLLLLGEDRFLSSLMLKTFPKRKQVFVPKAACKTIAPDKFKVLLSQRRRWINSTVHNLFELVLIRDLCGTFCFSMQFVIGIELIGTMVLPLAICFTIYVIIFAIVSKPTPVITLVLLAIILGLPGLIVVITATRWSYLWWMCVYICALPIWNFVLPSYAYWKFDDFSWGDTRTIAGGNKKAQDENEGEFDHSKIKMRTWREFEREDILNRKEESDSFVA
B1 was tested, and the “level of coIP relative to wild-type Chs3” value was ~0.25 of the level with wild-type Chs3.
